{"source": "patent US20130005646A1", "about": "(Novo Nordisk, published 2013)", "binders": {"B1": {"name": "N-alpha-[(S)-4-Carboxy-4-(19-carboxynonadecanoylamino)butyryl]-[Arg1,Pro37]-pramlintide (peptide)", "peptide": "{C20 diacid-γGlu}-RCNTATCATQRLANFLVHSSNNFGPILPPTNVGSNTP-NH2", "modifications": "disulfide 2-7", "SMILES": "CC[C@H](C)[C@H](NC(=O)[C@@H]1CCCN1C(=O)CNC(=O)[C@H](Cc1ccccc1)NC(=O)[C@H](CC(N)=O)NC(=O)[C@H](CC(N)=O)NC(=O)[C@H](CO)NC(=O)[C@H](CO)NC(=O)[C@H](Cc1c[nH]cn1)NC(=O)[C@@H](NC(=O)[C@H](CC(C)C)NC(=O)[C@H](Cc1ccccc1)NC(=O)[C@H](CC(N)=O)NC(=O)[C@H](C)NC(=O)[C@H](CC(C)C)NC(=O)[C@H](CCCNC(=N)N)NC(=O)[C@H](CCC(N)=O)NC(=O)[C@@H](NC(=O)[C@H](C)NC(=O)[C@@H]1CSSC[C@H](NC(=O)[C@H](CCCNC(=N)N)NC(=O)CC[C@H](NC(=O)CCCCCCCCCCCCCCCCCCC(=O)O)C(=O)O)C(=O)N[C@@H](CC(N)=O)C(=O)N[C@@H]([C@@H](C)O)C(=O)N[C@@H](C)C(=O)N[C@@H]([C@@H](C)O)C(=O)N1)[C@@H](C)O)C(C)C)C(=O)N[C@@H](CC(C)C)C(=O)N1CCC[C@H]1C(=O)N1CCC[C@H]1C(=O)N[C@H](C(=O)N[C@@H](CC(N)=O)C(=O)N[C@H](C(=O)NCC(=O)N[C@@H](CO)C(=O)N[C@@H](CC(N)=O)C(=O)N[C@H](C(=O)N1CCC[C@H]1C(N)=O)[C@@H](C)O)C(C)C)[C@@H](C)O"}, "B2": {"name": "N-alpha-[(S)-4-Carboxy-4-(19-carboxynonadecanoylamino)butyryl]-[Arg1,His35]-pramlintide (peptide)", "peptide": "{C20 diacid-γGlu}-RCNTATCATQRLANFLVHSSNNFGPILPPTNVGSHTY-NH2", "modifications": "disulfide 2-7", "SMILES": "CC[C@H](C)[C@H](NC(=O)[C@@H]1CCCN1C(=O)CNC(=O)[C@H](Cc1ccccc1)NC(=O)[C@H](CC(N)=O)NC(=O)[C@H](CC(N)=O)NC(=O)[C@H](CO)NC(=O)[C@H](CO)NC(=O)[C@H](Cc1c[nH]cn1)NC(=O)[C@@H](NC(=O)[C@H](CC(C)C)NC(=O)[C@H](Cc1ccccc1)NC(=O)[C@H](CC(N)=O)NC(=O)[C@H](C)NC(=O)[C@H](CC(C)C)NC(=O)[C@H](CCCNC(=N)N)NC(=O)[C@H](CCC(N)=O)NC(=O)[C@@H](NC(=O)[C@H](C)NC(=O)[C@@H]1CSSC[C@H](NC(=O)[C@H](CCCNC(=N)N)NC(=O)CC[C@H](NC(=O)CCCCCCCCCCCCCCCCCCC(=O)O)C(=O)O)C(=O)N[C@@H](CC(N)=O)C(=O)N[C@@H]([C@@H](C)O)C(=O)N[C@@H](C)C(=O)N[C@@H]([C@@H](C)O)C(=O)N1)[C@@H](C)O)C(C)C)C(=O)N[C@@H](CC(C)C)C(=O)N1CCC[C@H]1C(=O)N1CCC[C@H]1C(=O)N[C@H](C(=O)N[C@@H](CC(N)=O)C(=O)N[C@H](C(=O)NCC(=O)N[C@@H](CO)C(=O)N[C@@H](Cc1c[nH]cn1)C(=O)N[C@H](C(=O)N[C@@H](Cc1ccc(O)cc1)C(N)=O)[C@@H](C)O)C(C)C)[C@@H](C)O"}, "B3": {"name": "N-alpha-[(S)-4-Carboxy-4-(19-carboxynonadecanoylamino)butyryl]-Gly-[Arg1,His35]-pramlintide (peptide)", "peptide": "{C20 diacid-γGlu}-GRCNTATCATQRLANFLVHSSNNFGPILPPTNVGSHTY-NH2", "modifications": "disulfide 3-8", "SMILES": "CC[C@H](C)[C@H](NC(=O)[C@@H]1CCCN1C(=O)CNC(=O)[C@H](Cc1ccccc1)NC(=O)[C@H](CC(N)=O)NC(=O)[C@H](CC(N)=O)NC(=O)[C@H](CO)NC(=O)[C@H](CO)NC(=O)[C@H](Cc1c[nH]cn1)NC(=O)[C@@H](NC(=O)[C@H](CC(C)C)NC(=O)[C@H](Cc1ccccc1)NC(=O)[C@H](CC(N)=O)NC(=O)[C@H](C)NC(=O)[C@H](CC(C)C)NC(=O)[C@H](CCCNC(=N)N)NC(=O)[C@H](CCC(N)=O)NC(=O)[C@@H](NC(=O)[C@H](C)NC(=O)[C@@H]1CSSC[C@H](NC(=O)[C@H](CCCNC(=N)N)NC(=O)CNC(=O)CC[C@H](NC(=O)CCCCCCCCCCCCCCCCCCC(=O)O)C(=O)O)C(=O)N[C@@H](CC(N)=O)C(=O)N[C@@H]([C@@H](C)O)C(=O)N[C@@H](C)C(=O)N[C@@H]([C@@H](C)O)C(=O)N1)[C@@H](C)O)C(C)C)C(=O)N[C@@H](CC(C)C)C(=O)N1CCC[C@H]1C(=O)N1CCC[C@H]1C(=O)N[C@H](C(=O)N[C@@H](CC(N)=O)C(=O)N[C@H](C(=O)NCC(=O)N[C@@H](CO)C(=O)N[C@@H](Cc1c[nH]cn1)C(=O)N[C@H](C(=O)N[C@@H](Cc1ccc(O)cc1)C(N)=O)[C@@H](C)O)C(C)C)[C@@H](C)O"}, "B4": {"name": "N-alpha-[(S)-4-Carboxy-4-(19-carboxynonadecanoylamino)butyryl]-Gly-[Arg1,Glu14,His17,His35]-pramlintide (peptide)", "peptide": "{C20 diacid-γGlu}-GRCNTATCATQRLAEFLHHSSNNFGPILPPTNVGSHTY-NH2", "modifications": "disulfide 3-8", "SMILES": "CC[C@H](C)[C@H](NC(=O)[C@@H]1CCCN1C(=O)CNC(=O)[C@H](Cc1ccccc1)NC(=O)[C@H](CC(N)=O)NC(=O)[C@H](CC(N)=O)NC(=O)[C@H](CO)NC(=O)[C@H](CO)NC(=O)[C@H](Cc1c[nH]cn1)NC(=O)[C@H](Cc1c[nH]cn1)NC(=O)[C@H](CC(C)C)NC(=O)[C@H](Cc1ccccc1)NC(=O)[C@H](CCC(=O)O)NC(=O)[C@H](C)NC(=O)[C@H](CC(C)C)NC(=O)[C@H](CCCNC(=N)N)NC(=O)[C@H](CCC(N)=O)NC(=O)[C@@H](NC(=O)[C@H](C)NC(=O)[C@@H]1CSSC[C@H](NC(=O)[C@H](CCCNC(=N)N)NC(=O)CNC(=O)CC[C@H](NC(=O)CCCCCCCCCCCCCCCCCCC(=O)O)C(=O)O)C(=O)N[C@@H](CC(N)=O)C(=O)N[C@@H]([C@@H](C)O)C(=O)N[C@@H](C)C(=O)N[C@@H]([C@@H](C)O)C(=O)N1)[C@@H](C)O)C(=O)N[C@@H](CC(C)C)C(=O)N1CCC[C@H]1C(=O)N1CCC[C@H]1C(=O)N[C@H](C(=O)N[C@@H](CC(N)=O)C(=O)N[C@H](C(=O)NCC(=O)N[C@@H](CO)C(=O)N[C@@H](Cc1c[nH]cn1)C(=O)N[C@H](C(=O)N[C@@H](Cc1ccc(O)cc1)C(N)=O)[C@@H](C)O)C(C)C)[C@@H](C)O"}, "B5": {"name": "N-alpha-[(S)-4-Carboxy-4-(19-carboxynonadecanoylamino)butyryl]-Gly-[Arg1,Glu14,Pro37]-pramlintide (peptide)", "peptide": "{C20 diacid-γGlu}-GRCNTATCATQRLAEFLVHSSNNFGPILPPTNVGSNTP-NH2", "modifications": "disulfide 3-8", "SMILES": "CC[C@H](C)[C@H](NC(=O)[C@@H]1CCCN1C(=O)CNC(=O)[C@H](Cc1ccccc1)NC(=O)[C@H](CC(N)=O)NC(=O)[C@H](CC(N)=O)NC(=O)[C@H](CO)NC(=O)[C@H](CO)NC(=O)[C@H](Cc1c[nH]cn1)NC(=O)[C@@H](NC(=O)[C@H](CC(C)C)NC(=O)[C@H](Cc1ccccc1)NC(=O)[C@H](CCC(=O)O)NC(=O)[C@H](C)NC(=O)[C@H](CC(C)C)NC(=O)[C@H](CCCNC(=N)N)NC(=O)[C@H](CCC(N)=O)NC(=O)[C@@H](NC(=O)[C@H](C)NC(=O)[C@@H]1CSSC[C@H](NC(=O)[C@H](CCCNC(=N)N)NC(=O)CNC(=O)CC[C@H](NC(=O)CCCCCCCCCCCCCCCCCCC(=O)O)C(=O)O)C(=O)N[C@@H](CC(N)=O)C(=O)N[C@@H]([C@@H](C)O)C(=O)N[C@@H](C)C(=O)N[C@@H]([C@@H](C)O)C(=O)N1)[C@@H](C)O)C(C)C)C(=O)N[C@@H](CC(C)C)C(=O)N1CCC[C@H]1C(=O)N1CCC[C@H]1C(=O)N[C@H](C(=O)N[C@@H](CC(N)=O)C(=O)N[C@H](C(=O)NCC(=O)N[C@@H](CO)C(=O)N[C@@H](CC(N)=O)C(=O)N[C@H](C(=O)N1CCC[C@H]1C(N)=O)[C@@H](C)O)C(C)C)[C@@H](C)O"}, "B6": {"name": "N-alpha-[(S)-4-Carboxy-4-(19-carboxynonadecanoylamino)butyryl]-Gly-[Arg1,Pro37]-pramlintide (peptide)", "peptide": "{C20 diacid-γGlu}-GRCNTATCATQRLANFLVHSSNNFGPILPPTNVGSNTP-NH2", "modifications": "disulfide 3-8", "SMILES": "CC[C@H](C)[C@H](NC(=O)[C@@H]1CCCN1C(=O)CNC(=O)[C@H](Cc1ccccc1)NC(=O)[C@H](CC(N)=O)NC(=O)[C@H](CC(N)=O)NC(=O)[C@H](CO)NC(=O)[C@H](CO)NC(=O)[C@H](Cc1c[nH]cn1)NC(=O)[C@@H](NC(=O)[C@H](CC(C)C)NC(=O)[C@H](Cc1ccccc1)NC(=O)[C@H](CC(N)=O)NC(=O)[C@H](C)NC(=O)[C@H](CC(C)C)NC(=O)[C@H](CCCNC(=N)N)NC(=O)[C@H](CCC(N)=O)NC(=O)[C@@H](NC(=O)[C@H](C)NC(=O)[C@@H]1CSSC[C@H](NC(=O)[C@H](CCCNC(=N)N)NC(=O)CNC(=O)CC[C@H](NC(=O)CCCCCCCCCCCCCCCCCCC(=O)O)C(=O)O)C(=O)N[C@@H](CC(N)=O)C(=O)N[C@@H]([C@@H](C)O)C(=O)N[C@@H](C)C(=O)N[C@@H]([C@@H](C)O)C(=O)N1)[C@@H](C)O)C(C)C)C(=O)N[C@@H](CC(C)C)C(=O)N1CCC[C@H]1C(=O)N1CCC[C@H]1C(=O)N[C@H](C(=O)N[C@@H](CC(N)=O)C(=O)N[C@H](C(=O)NCC(=O)N[C@@H](CO)C(=O)N[C@@H](CC(N)=O)C(=O)N[C@H](C(=O)N1CCC[C@H]1C(N)=O)[C@@H](C)O)C(C)C)[C@@H](C)O"}}, "key": {"[1]": {"target": "T1, human calcitonin (a) receptor (human, UniProt P30988 25-474)", "T1 sequence (looked up)": "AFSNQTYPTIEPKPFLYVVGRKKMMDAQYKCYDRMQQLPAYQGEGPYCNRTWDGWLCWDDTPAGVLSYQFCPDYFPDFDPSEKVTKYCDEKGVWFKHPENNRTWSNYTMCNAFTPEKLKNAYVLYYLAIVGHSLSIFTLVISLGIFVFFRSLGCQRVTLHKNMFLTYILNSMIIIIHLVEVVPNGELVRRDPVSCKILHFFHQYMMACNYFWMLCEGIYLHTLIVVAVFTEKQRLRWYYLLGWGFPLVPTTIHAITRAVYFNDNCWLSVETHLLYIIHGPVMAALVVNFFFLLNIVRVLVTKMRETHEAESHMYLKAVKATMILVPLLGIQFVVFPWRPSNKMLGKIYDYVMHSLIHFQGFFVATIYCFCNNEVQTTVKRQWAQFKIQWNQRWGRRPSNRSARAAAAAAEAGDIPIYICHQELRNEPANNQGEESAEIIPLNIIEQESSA", "assay": "cell-based or functional assay"}, "[2]": {"target": "T2, human amylin 3(a) receptor (human calcitonin receptor + RAMP-3) (human, UniProt P30988 25-474; O60896 24-148)", "T2 sequence (looked up) 1": "T1 sequence (looked up)", "T2 sequence (looked up) 2": "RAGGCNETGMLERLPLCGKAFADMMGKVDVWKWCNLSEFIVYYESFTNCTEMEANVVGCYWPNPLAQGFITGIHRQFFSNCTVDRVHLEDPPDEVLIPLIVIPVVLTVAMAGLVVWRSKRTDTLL", "assay": "cell-based or functional assay"}}, "note": "Starred links: 1 amine or outer side, 2 acyl side, 3 side chain; linkers in the order of their positions; H or OH if unused. Positions of bridges follow the written chain, without caps; N, C: chain ends. *: point of attachment. C20 diacid = O=C(O)CCCCCCCCCCCCCCCCCCC(=O)*; γGlu = O=C(O)[C@H](CCC(=O)[*:2])N[*:1]"}
{"binder": "B1", "values": [{"measurement": "CTa receptor human EC50", "setting": "[1]", "value": 0.0385, "unit": "nM"}, {"measurement": "Amylin receptor human EC50", "setting": "[2]", "value": 0.034, "unit": "nM"}]}
{"binder": "B2", "values": [{"measurement": "CTa receptor human EC50", "setting": "[1]", "value": 0.193, "unit": "nM"}, {"measurement": "Amylin receptor human EC50", "setting": "[2]", "value": 0.0745, "unit": "nM"}]}
{"binder": "B3", "values": [{"measurement": "CTa receptor human EC50", "setting": "[1]", "value": 0.0875, "unit": "nM"}, {"measurement": "Amylin receptor human EC50", "setting": "[2]", "value": 0.045, "unit": "nM"}]}
{"binder": "B4", "values": [{"measurement": "CTa receptor human EC50", "setting": "[1]", "value": 0.0895, "unit": "nM"}, {"measurement": "Amylin receptor human EC50", "setting": "[2]", "value": 0.0675, "unit": "nM"}]}
{"binder": "B5", "values": [{"measurement": "CTa receptor human EC50", "setting": "[1]", "value": 0.0505, "unit": "nM"}, {"measurement": "Amylin receptor human EC50", "setting": "[2]", "value": 0.0495, "unit": "nM"}]}
{"binder": "B6", "values": [{"measurement": "CTa receptor human EC50", "setting": "[1]", "value": 0.075, "unit": "nM"}, {"measurement": "Amylin receptor human EC50", "setting": "[2]", "value": 0.0525, "unit": "nM"}]}
